According to article PMC5536852:
Where two headings read alike, the source gives them in different places.

What was measured:
[1] = biological target: PP1γ, active form (His-tagged protein phosphatase 1 gamma) (UniProt P36873); assay: enzyme inhibition kinetics
[2] = biological target: PP1γ, active form (His-tagged protein phosphatase 1 gamma) (UniProt P36873); assay: enzyme inhibition kinetics; remark: listed apart in the source

Chain of UniProt P36873 (P36873 whole entry): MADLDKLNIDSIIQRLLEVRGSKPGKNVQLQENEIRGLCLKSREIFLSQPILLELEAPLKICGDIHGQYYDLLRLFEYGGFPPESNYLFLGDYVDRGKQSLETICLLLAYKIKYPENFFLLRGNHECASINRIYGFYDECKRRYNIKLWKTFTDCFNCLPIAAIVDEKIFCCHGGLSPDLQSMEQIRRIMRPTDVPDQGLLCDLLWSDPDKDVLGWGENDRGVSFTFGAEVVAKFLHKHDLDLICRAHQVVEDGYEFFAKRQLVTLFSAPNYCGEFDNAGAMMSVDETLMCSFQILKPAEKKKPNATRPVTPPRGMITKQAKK

Ki [1]: 410 nM | Ki [2]: 350 nM
Substance: His-tagged RRM1 (isolated RNA recognition motif 1 of SRSF1) (domain or fragment)
